Reference: publication doi:10.1101/2020.05.12.090381 (bioRxiv, 2020)
Positions count from the first letter of the chain named. Numbers in names are those of the source.

How the values were obtained:
[1] = target: LdcI-Dendra2_(T69A) (C-terminal fluorescent protein fusion of LdcI) (E. coli | not stated); assay: negative stain EM
[2] = target: LdcI R97E/R468E (E. coli) (UniProt P0A9H3); assay: negative stain EM
[3] = target: Dendra2_(T69A)-LdcI (N-terminal fluorescent protein fusion of LdcI) (not stated | E. coli); assay: negative stain EM
[4] = target: LdcI E445A/D447A/R468E (E. coli) (UniProt P0A9H3); assay: negative stain EM
[5] = target: LdcI R468E (E. coli) (UniProt P0A9H3); assay: negative stain EM
[6] = target: the molecule itself; assay: negative stain EM
[7] = target: the molecule itself; assay: negative stain EM; remark: listed apart in the source
[8] = target: the molecule itself; assay: cryo-EM structure

LdcI-Dendra2_(T69A) (C-terminal fluorescent protein fusion of LdcI)
stoichiometry N [1]: 10

LdcI R97E/R468E (from UniProt P0A9H3 1-715) (enzyme)
stoichiometry N [2]: 10

Dendra2_(T69A)-LdcI (N-terminal fluorescent protein fusion of LdcI)
stoichiometry N [3]: 2

LdcI E445A/D447A/R468E (from UniProt P0A9H3 1-715) (enzyme)
stoichiometry N [4]: 10

LdcI R468E (from UniProt P0A9H3 1-715) (enzyme)
stoichiometry N [5]: 10

B1: mGeosM-LdcI (N-terminal fluorescent protein fusion of LdcI) (other)
chain: MSAIKPDMKIKLRMEGNVNGHHFVIDGDGTGKPFEGKQSMDLEVKEGGPLPFAFDILTTAFMYGNRVFAKYPDNIQDYFKQSFPKGYSWERSLTFEDGGICIARNDITMEGDTFYNKVRFYGTNFPANGPVMQKKTLKWEPSTEKMYVRDGVLTGDIHMALLLEGNAHYRCDSRTTYKAKEKGVKLPGYHFVDHCIEILSHDKDYNKVKLYEHAVAHSGLPDNARRMNVIAILNHMGVYFKEEPIRELHRALERLNFQIVYPNDRDDLLKLIENNARLCGVIFDWDKYNLELCEEISKMNENLPLYAFANTYSTLDVSLNDLRLQISFFEYALGAAEDIANKIKQTTDEYINTILPPLTKALFKYVREGKYTFCTPGHMGGTAFQKSPVGSLFYDFFGPNTMKSDISISVSELGSLLDHSGPHKEAEQYIARVFNADRSYMVTNGTSTANKIVGMYSAPAGSTILIDRNCHKSLTHLMMMSDVTPIYFRPTRNAYGILGGIPQSEFQHATIAKRVKETPNATWPVHAVITNSTYDGLLYNTDFIKKTLDVKSIHFDSAWVPYTNFSPIYEGKCGMSGGRVEGKVIYETQSTHKLLAAFSQASMIHVKGDVNEETFNEAYMMHTTTSPHYGIVASTETAAAMMKGNAGKRLINGSIERAIKFRKEIKRLRTESDGWFFDVWQPDHIDTTECWPLRSDSTWHGFKNIDNEHMYLDPIKVTLLTPGMEKDGTMSDFGIPASIVAKYLDEHGIVVEKTGPYNLLFLFSIGIDKTKALSLLRALTDFKRAFDLNLRVKNMLPSLYREDPEFYENMRIQELAQNIHKLIVHHNLPDLMYRAFEVLPTMVMTPYAAFQKELHGMTEEVYLDEMVGRINANMILPYPPGVPLVMPGEMITEESRPVLEFLQMLCEIGAHYPGFETDIHGAYRQADGRYTVKVLKEESKK
stoichiometry N [6]: 12

B2: LdcI H694A (enzyme, E. coli, UniProt P0A9H3 1-715, looked up)
chain: MNVIAILNHMGVYFKEEPIRELHRALERLNFQIVYPNDRDDLLKLIENNARLCGVIFDWDKYNLELCEEISKMNENLPLYAFANTYSTLDVSLNDLRLQISFFEYALGAAEDIANKIKQTTDEYINTILPPLTKALFKYVREGKYTFCTPGHMGGTAFQKSPVGSLFYDFFGPNTMKSDISISVSELGSLLDHSGPHKEAEQYIARVFNADRSYMVTNGTSTANKIVGMYSAPAGSTILIDRNCHKSLTHLMMMSDVTPIYFRPTRNAYGILGGIPQSEFQHATIAKRVKETPNATWPVHAVITNSTYDGLLYNTDFIKKTLDVKSIHFDSAWVPYTNFSPIYEGKCGMSGGRVEGKVIYETQSTHKLLAAFSQASMIHVKGDVNEETFNEAYMMHTTTSPHYGIVASTETAAAMMKGNAGKRLINGSIERAIKFRKEIKRLRTESDGWFFDVWQPDHIDTTECWPLRSDSTWHGFKNIDNEHMYLDPIKVTLLTPGMEKDGTMSDFGIPASIVAKYLDEHGIVVEKTGPYNLLFLFSIGIDKTKALSLLRALTDFKRAFDLNLRVKNMLPSLYREDPEFYENMRIQELAQNIHKLIVHHNLPDLMYRAFEVLPTMVMTPYAAFQKELHGMTEEVYLDEMVGRINANMILPYPPGVPLVMPGEMITEESRPVLEFLQMLCEIGAHYPGFETDIAGAYRQADGRYTVKVLKEESKK
binding result [7]: binds

B3: LdcI R97E (enzyme, E. coli, UniProt P0A9H3 1-715, looked up)
chain: B2 chain with R97E, A694H
binding result [7]: binds

B4: LdcI H694N (enzyme, E. coli, UniProt P0A9H3 1-715, looked up)
chain: B2 chain with A694N
binding result [7]: binds

B5: E. coli inducible lysine decarboxylase LdcI, wild type (enzyme, UniProt P0A9H3 1-715, looked up)
chain: B2 chain with A694H
stoichiometry N [8]: 10

B6: LdcI E445A/D447A (enzyme, E. coli, UniProt P0A9H3 1-715, looked up)
chain: B2 chain with E445A, D447A, A694H
binding result [7]: binds

B7: LdcI-mGeosM (C-terminal fluorescent protein fusion of LdcI) (other)
chain: B2 chain with A694H
stoichiometry N [6]: 10
